Assay results as given in PMC3812226, “A New Short Oligonucleotide-Based Strategy for the Precursor-Specific Regulation of microRNA Processing by Dicer”.

How the values were obtained:
[1] = target: T1, hDicer (human recombinant Dicer) (human, UniProt Q9UPY3 1-1922); assay: EMSA; no divalent metal, 4 C; Filter binding: 20 mM Tris-HCl pH 7.5, 250 mM NaCl (membrane pre-soak/reaction buffer), 37 C 30 min; hDicer EMSA: 20 min at 4 C, Dicer preincubated without divalent cations (Fig S1), native PAGE; conditions: protein: commercial; label: 5'-32P
[2] = target: T1, hDicer (human recombinant Dicer); assay: EMSA; 4 C; Filter binding: 20 mM Tris-HCl pH 7.5, 250 mM NaCl (membrane pre-soak/reaction buffer), 37 C 30 min; hDicer EMSA: 20 min at 4 C, Dicer preincubated without divalent cations (Fig S1), native PAGE; conditions: protein: commercial; label: 5'-32P; single strand
[3] = target: T1, hDicer (human recombinant Dicer); assay: competition; displaces labeled ATD_13.6; Filter binding: 20 mM Tris-HCl pH 7.5, 250 mM NaCl (membrane pre-soak/reaction buffer), 37 C 30 min; hDicer EMSA: 20 min at 4 C, Dicer preincubated without divalent cations (Fig S1), native PAGE; conditions: protein: commercial; hairpin
[4] = target: T1, hDicer (human recombinant Dicer); assay: competition; displaces labeled ATD_13.6 (most profound effect); Filter binding: 20 mM Tris-HCl pH 7.5, 250 mM NaCl (membrane pre-soak/reaction buffer), 37 C 30 min; hDicer EMSA: 20 min at 4 C, Dicer preincubated without divalent cations (Fig S1), native PAGE; conditions: protein: commercial; hairpin

B1: ATD_15.52 (structured_RNA)
RNA: GGGAGAAUCAUAAGUAGCGCAGUGAGUCGUUGUGCUGCCCAUGUUAACAGUUAGCC
[1]
  binding result: binds

B2: 2OMe-AL-210 (XNA)
strand: GGGGCAGCGCAG
modifications: 2'-O-methyl at every ribose
[2]
  binding result: binds

B3: pre-miR-33a (structured_RNA)
RNA: GUGCAUUGUAGUUGCAUUGCAUGUUCUGGUGGUACCCAUGCAAUGUUUCCACAGUGCAUC
[3]
  binding result: binds

B4: pre-miR-21 (structured_RNA)
RNA: AGCUUAUCAGACUGAUGUUGACUGUUGAAUCUCAUGGCAACACCAGUCGAUGGGCUGU
[3]
  binding result: binds

B5: pre-miR-16-1 (structured_RNA)
RNA: UAGCAGCACGUAAAUAUUGGCGUUAAGAUUCUAAAAUUAUCUCCAGUAUUAACUGUGCUGCUGAA
[4]
  binding result: binds
